Data reported in patent publication US20210063414A1, “METHODS FOR PREVENTING AND/OR TREATING BONE LOSS CONDITIONS BY MODULATING IRISIN” (Dana-Farber Cancer Institute, Inc., priority 2018, published 2021).

Molecular target: T1, MLO-Y4 cell surface proteins (Mus musculus, UniProt Q921N7)
T1 construct: endogenous in cells; host or cells: MLO-Y4
T1 sequence (Q921N7 78-253): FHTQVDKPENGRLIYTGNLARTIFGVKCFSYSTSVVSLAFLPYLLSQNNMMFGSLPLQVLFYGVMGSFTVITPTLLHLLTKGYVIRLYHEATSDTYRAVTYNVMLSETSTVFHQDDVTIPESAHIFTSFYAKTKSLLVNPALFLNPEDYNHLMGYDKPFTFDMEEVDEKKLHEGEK
Assay: Crosslinking/co-immunoprecipitation/mass spectrometry (TMT quantitative proteomics) to identify irisin receptors
Type: binding
Settings: co-precipitated protein Tmem70 (TMM70_MOUSE)
Outline: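 Mouse MLO-Y4 cells were switched to serum-free FreeStyle medium for 4 h, chilled, then exposed to 10 nM His-tagged irisin (or adipsin as control) for 20 min. Cells were crosslinked with 1.5 mM DTSSP (30 min, ice), and bound proteins were pulled down on Ni-NTA and eluted with 250 mM imidazole. Eluates were separated by SDS-PAGE, trypsin-digested in gel, TMT 6-plex labelled and quantified by MS3-based LC-MS/MS on an Orbitrap Fusion Lumos.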

B1: irisin: secreted cleaved form of FNDC5; recombinant human/mouse irisin with C-terminal his tag produced in HEK293 cells (protein)
chain: DSPSAPVNVTVRHLKANSAVVSWDVLEDEVVIGFAISQQKKDVRMLRFIQEVNTTTRSCALWDLEEDTEYIVHVQAISIQGQSPASEPVLFKTPREAEKMASKNKDEVTMKE
modifications: left off: small tags and cut ends
notes: secreted cleaved form of FNDC5; recombinant human/mouse irisin with C-terminal his tag produced in HEK293 cells
  TMT signal-to-noise ratio: 49.6598
  irisin/adipsin TMT signal-to-noise ratio: 0.562
